Values joined by “and” are separate entries in the source; they are usually repeats but may differ in a detail not shown here. Identical values can stand only once. Values belong to the molecule of their own block, whether it stands above or below them. *1 amine or outer side, *2 acyl side, *3 side chain or, on linkers, in order; H or OH if unused. Where a SMILES comes first, the peptide text is derived from it. Primed or numbered codes have the meaning given here. Where no end group is shown, it is not given here. [ ]: non-standard residue; d: D form. The star is where a group is joined. Aha′ = its azide, alkyne or alkene has reacted where a group follows in round brackets; Den = denatonium (bitter payload), attached at the C-terminus via CH2-NH2; DBCO‑Sulfo‑Cy5 = fluorescent dye clicked to Aha; AFDye488‑DBCO = fluorescent dye clicked to Aha; X1 = CC[N+](CC)(CC(=O)[*:2])Cc1ccc(CN[*:1])cc1; NH(2,6-Me2-phenyl) = Cc1cccc(C)c1N*
Experiments:
MMP-1 = target: T1, MMP-1 (Homo sapiens, UniProt P03956); assay: Sensor cleavage by MMP-1; format: biochemical; conditions: for cleavage rate (multiplexing): sensors in mixture, 17.5 nM MMP-1, incubation 15 minutes
T1 construct: purchased Merck Millipore
T1 sequence (P03956 100-469): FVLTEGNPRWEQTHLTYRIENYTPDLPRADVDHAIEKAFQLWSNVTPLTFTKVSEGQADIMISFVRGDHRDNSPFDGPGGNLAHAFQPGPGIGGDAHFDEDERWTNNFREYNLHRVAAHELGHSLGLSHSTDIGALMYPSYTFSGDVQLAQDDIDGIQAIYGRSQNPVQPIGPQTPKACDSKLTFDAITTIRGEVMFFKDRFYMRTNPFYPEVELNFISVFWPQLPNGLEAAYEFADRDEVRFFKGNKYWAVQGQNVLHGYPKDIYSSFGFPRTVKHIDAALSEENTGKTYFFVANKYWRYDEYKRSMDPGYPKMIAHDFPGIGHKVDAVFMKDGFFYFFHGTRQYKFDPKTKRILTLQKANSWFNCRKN
Procedure: (§1) Pro-Matrix-metalloproteinases (MMP-1, MMP-8, and MMP-9) (Merck Millipore, Burlington, MA, USA) were activated prior usage. To activate Pro-MMPs a fresh 50 mM 4-Aminophenylmercuric acetate (APMA) stock solution in 0.1 M NaOH was prepared. The stock solution was added in a 10:1 (v/v) ratio to Pro-MMPs (Pro-MMPs:APMA) to reach a final concentration of 5 mM APMA. The solution was incubated for 3 h at 37 °C without agitation. Following incubation, the activated MMPs were stored in aliquots at -80 °C.
Lyophilized sensors and Y3 were solubilized in MMP buffer (200 mM NaCl, 50 mM Tris-HCI, 5 mM CaCl2, 1 µM ZnCl2, 0.05 % Brij35 at pH 6.8-7.0) to 1 mM stock solutions. Cleavage was performed at 37 °C under rigorous shaking in 30 µL MMP buffer containing 0.1 mM of the respective sensor/peptide and 900 ng/mL MMP-8, or a molar equivalent of MMP-1 or MMP-9 for single cleavage conditions. Cleavage of sensors in mixture was performed with sensor concentrations of 25 µM for each sensor. The reaction was stopped via addition of 5 mM EDTA final concentration.
(§2) Experiments were performed n = 5. Cleavage was analyzed via fluorescent detection via HPLC with following wavelengths: SP3 (absorption: 646 nm; emission: 661 nm), SP5 (absorption: 494 nm; emission: 517 nm), SP7 (absorption: 553 nm; emission: 566 nm) and SN3 (absorption: 280 nm; emission: 350 nm). Y3 cleavage was analyzed as described before. Cleavage percent was analyzed by comparing the AUC of the main peak from the compound incubated with MMP and in absence of MMP. Cleavage percent was then normalized by multiplying cleavage results with a correction factor. The correction factor was determined individually for every experiment/MMP by dividing Y3 cleavage results acquired in protease sensitive linker identification study by cleavage results of Y3 in individual sensor cleavage experiments (Figure 3 D-F).

MMP-9 = target: T2, MMP-9 (Homo sapiens, UniProt P14780); assay: Sensor cleavage by MMP-9; format: biochemical
T2 construct: purchased Merck Millipore
Procedure: as §1
(§3) Lyophilized sensors and Y3 were solubilized in MMP buffer (200 mM NaCl, 50 mM Tris-HCI, 5 mM CaCl2, 1 µM ZnCl2, 0.05 % Brij35 at pH 6.8-7.0) to 1 mM stock solutions. […]
as §2, with “Cleavage percent was then normalized by multiplying cleavage results with a correction factor.” left out

MMP-8 = target: T3, MMP-8 (Homo sapiens, UniProt P22894); assay: Sensor cleavage by MMP-8; format: biochemical; conditions: sensors in mixture, 17.5 nM MMP-8, incubation 15 minutes
T3 construct: purchased Merck Millipore
Procedure: as §1, §3
as §2, with “Cleavage percent was then normalized by multiplying cleavage results with a correction factor.” left out

[1] = Sensor cleavage in human saliva; format: biochemical; conditions: for cleavage in saliva from patients compared to saliva from healthy donors: periodontitis patients vs. healthy donors
Procedure: Lyophilized sensors were solubilized in MMP buffer to 0.05 mM each and mixed with saliva 1:1 (v/v) to reach a final concentration of 25 µM per sensor. The solution was incubated for 15 min at 37 °C under rigorous shaking and the reaction was stopped via addition of 5 mM EDTA final concentration. The samples were diluted 1:2 with acetonitrile, 1:5 with water (1:10 total dilution) and analyzed via HPLC as described before. Cleavage efficiency was analyzed by comparing the AUC of the newly formed peaks compared to the total AUC of the combined peaks. Peaks with LU < 1 were considered below the limit of detection and set to 0.5 LU for further analysis.
The study participants were recruited from patients visiting the department of Periodontology of the University Hospital of Würzburg, Germany between Oct/2019 to Dec/2020. Periodontally healthy patients as well as patients with periodontal diseases of varying severity (gingivitis, periodontitis) were included. The periodontally diseased patients were in different stages of treatment (untreated patients before active initial therapy, treated recall patients in regular supportive aftercare). Eligibility criteria were age 18 to 99 years. Patients of both sexes, with and without periodontal disease were included in the study.
Periodontal examinations were obtained from all study participants comprising the documentation of missing teeth, probing pocket depths (PPD), recession, bleeding on probing (BoP), clinical attachment level (CAL), furcation involvement, tooth mobility and plaque control record (PlaCR). Demographic details and general health profile of the participants including current intake of medications and frequency of smoking was documented using a questionnaire. CAL, PPD and BoP were recorded at 6 sites per tooth (mesio-buccal, buccal, disto-buccal, disto-oral, oral, mesio-oral) using a pressure calibrated computer aided Florida Probe handpiece. Any bleeding spot appearing within 30 seconds after probing was recorded as a BoP-positive site. Furcation involvement was determined using a manual furcation probe (Nabers Probe). The total amount of periodontal inflammation present in each patient was calculated from the recorded BoP, CAL and PPD scores using the PISA-Index. Collected samples were quality-controlled hosted by the certified centralized biobank of the medical faculty of the University of Würzburg. […]
Saliva samples were prepared as above. The MMP-8 activity assay (Quickzyme, Leiden, Netherlands) was performed following provided protocols. In brief, reagents were prepared as described by protocols. […] Absorbance was measured at 405 nm in a microplate reader (Tecan Infinite F50, Crailsheim, Germany) at 0, 2, 4 and 6 h. […]

[2] = target: MMP mix (a mixture of MMPs 1, 8, and 9); assay: cell-based or functional assay
[3] = control saliva samples, per patient, sensors in mixture, 25 µM per sensor, 15 min at 37 °C

T2 sequence (P14780 107-707 limits assumed): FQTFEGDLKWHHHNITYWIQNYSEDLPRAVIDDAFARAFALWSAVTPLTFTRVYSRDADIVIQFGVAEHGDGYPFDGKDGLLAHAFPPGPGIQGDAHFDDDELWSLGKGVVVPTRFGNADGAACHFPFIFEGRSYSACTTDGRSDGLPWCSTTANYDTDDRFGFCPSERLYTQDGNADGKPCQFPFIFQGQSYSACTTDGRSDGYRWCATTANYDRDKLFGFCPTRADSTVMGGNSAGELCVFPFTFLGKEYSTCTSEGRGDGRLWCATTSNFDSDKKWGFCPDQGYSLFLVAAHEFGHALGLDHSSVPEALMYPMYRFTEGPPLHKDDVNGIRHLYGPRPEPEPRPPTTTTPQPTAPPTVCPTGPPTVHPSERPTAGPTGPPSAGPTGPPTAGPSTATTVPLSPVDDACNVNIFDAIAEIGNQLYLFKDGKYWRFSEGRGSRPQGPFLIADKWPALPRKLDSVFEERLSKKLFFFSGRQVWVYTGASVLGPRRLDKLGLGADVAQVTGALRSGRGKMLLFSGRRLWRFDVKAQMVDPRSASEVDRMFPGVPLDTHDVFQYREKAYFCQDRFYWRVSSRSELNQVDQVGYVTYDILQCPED
T3 sequence (P22894 101-467): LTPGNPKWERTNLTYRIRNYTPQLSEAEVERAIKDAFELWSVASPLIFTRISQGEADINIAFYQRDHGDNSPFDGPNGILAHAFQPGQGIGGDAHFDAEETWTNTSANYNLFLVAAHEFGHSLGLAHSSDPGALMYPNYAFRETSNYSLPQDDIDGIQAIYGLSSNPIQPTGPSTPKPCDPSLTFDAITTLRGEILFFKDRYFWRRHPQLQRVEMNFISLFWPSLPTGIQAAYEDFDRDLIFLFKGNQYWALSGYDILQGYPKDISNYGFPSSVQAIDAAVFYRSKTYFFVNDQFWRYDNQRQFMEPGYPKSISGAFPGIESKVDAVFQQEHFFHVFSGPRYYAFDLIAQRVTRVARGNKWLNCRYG

maximum cleavage (MMP-1; MMP-1, 15 min, concentrations ranging from 1 to 10 nM): 7%
maximum cleavage (MMP-9; MMP-9, 15 min, concentrations ranging from 1 to 10 nM): 10%
Molecule: CC[C@H](C)[C@H](NC(=O)CNC(=O)[C@H](CCC(N)=O)NC(=O)[C@@H]1CCCN1C(=O)CNC(=O)[C@H](CO)NC(=O)CNC(=O)[C@H](CO)NC(=O)CNC(C)=O)C(=O)N[C@@H](C)C(=O)NCC(=O)N[C@@H](C)C(=O)NCC(=O)N[C@@H](CO)C(=O)NCC(=O)N[C@@H](CO)C(=O)NCc1ccc(C[N+](CC)(CC)CC(=O)Nc2c(C)cccc2C)cc1 [S1, Ac-GSGS-GPQGIAGA-GSGS-Den] (Ac-GSGSGPQGIAGAGSGS[X1]-{NH(2,6-Me2-phenyl)})

cleavage rate (multiplexing) (MMP-1): cleaved most effectively
cleavage rate (multiplexing) (MMP-8): cleaved most effectively
Molecule: SY3: sensor from PSL-Y3: Y3a with C-terminal L-azidohomoalanine clicked to fluorescent dye DBCO-Sulfo-Cy5 (Ac-GSGSGPLALVGAGSGS[Aha′](DBCO‑Sulfo‑Cy5))
Cleavage SY3 [1, 3]: 1.39% (2×) and 3.77% and 3.71% and 2.96% and 0.34% and 4.60% and 1.80% and 5.40% and 0.29% and 11.05% and 1.60% and 1.07% and 0.38% and 0.37% and 0.31%
cleavage in saliva from patients compared to saliva from healthy donors [1]: discriminated against periodontitis

cleavage rate (multiplexing) (MMP-1): not MMP-1 or MMP-9
cleavage rate (multiplexing) (MMP-8): responded to MMP-8
cleavage rate (multiplexing) (MMP-9; sensors in mixture, 17.5 nM MMP-9, incubation 15 minutes): not MMP-1 or MMP-9
Molecule: SY5: sensor from PSL-Y5: Y5a with C-terminal L-azidohomoalanine clicked to fluorescent dye AFDye488-DBCO (Ac-GSGSGALELVGAGSGS[Aha′](AFDye488‑DBCO))
Cleavage SY5 [1, 3]: 2.55% and 4.69% and 2.64% and 2.11% and 0.17% (2×) and 3.56% and 2.25% and 4.88% and 0.14% and 11.04% and 2.84% and 0.18% (2×) and 0.16% and 0.15%
cleavage in saliva from patients compared to saliva from healthy donors [1]: discriminated against periodontitis

cleavage rate (4 nM MMP mix, 5 min, HPLC) [2]: < 1%
cleavage rate (8 nM MMP mix, 5 min, HPLC) [2]: > 20%
Molecule: Ac-GSGSGPQGIAGAGSGS-Den [Sensor S1, Ac-GSGS-GPQGIAGA-GSGS-Den]

Reference: patent EP4360658A1, “COMPOUNDS FOR DETECTION OF ORAL INFLAMMATION” (Julius-Maximilians-Universität Würzburg, priority 2022, dated 2024)
